Measurements published in article PMC2909203, “Defining the Functional Domain of Programmed Cell Death 10 through Its Interactions with Phosphatidylinositol-3,4,5-Trisphosphate” (PLoS ONE, 2010).

B1: Recombinant murine 6xHis-PDCD10, wild type (natural protein)
chain: not shown
notes: PDCD10 (CCM3), murine, full length, amplified from a mouse fibroblast cDNA library and cloned into pMCSG7-His; 212 amino acids; Dimer in solution by SEC-MALS; also called CCM3; WT; not shown: 6xHis, N-terminal, kept
B2: Recombinant murine 6xHis-PDCD10 Δ5KA mutant (K169A, K172A, K179A, K183A, K186A) (natural protein)
chain: not shown
notes: PDCD10 (CCM3), murine, full length, with five K-to-A mutations made by site-directed mutagenesis; Dimer in solution by SEC-MALS; also called Δ5KA PDCD10; mutant Δ5KA ccm3; source: E. coli BL21DE3, purified; not shown: 6xHis, N-terminal, kept

Molecular target: the molecule itself
Test: SEC-MALS; 0.2 to 0.4 mg/ml purified His-tag protein in 10 mM phosphate buffer, pH 7.0, 500 mM NaCl; self-association, dimer the only species

Row | Protein | stoichiometry N
1 | B1 | 2
2 | B2 | 2
